# B1: mTTYH3-EGFP (HEK 293, pEGFP-N1) [mouse] / itself (parent)
# chain: MAGVSYAAPWWVSLLHRLPHFDLRWEATSSQFRPEDADYQQALLLLGATALACLALDLLFLLFYSFWLCCRRRKTDEHLDADCCCTAWCVIITTLVCSAGIAVGFYGNGETSDGIHRATYSLRHANRTVAGVQDRVWDTAAALNRTAEPNLQSLERQLAGRQEPLRAVQRLQTLLGTLLGYTAAIPFWRNPGVSLEVLAEQVDLYDWYRWLGYLGLLLLDVIICLLVLVGLIRSSKGILVGVCLLGVLALVISWGALGLELAVSVGSSDFCVDPDTFVTKMVEEHSVLSGDILQYYLACSPRATNPFQQKLSGSHKALVEMQDVVAELLRNVPREHPATKDPLLRVQEVLNGTEVNLQHLTALVDCRSLHLDYVQALTGFCYDGVEGLIYLALFSFVTALMFSSIVCSIPHTWQQKRGPDDDGEEETAPGPRQAHDSLYRVHMPSLYSCGSSYGSEASIPAAAHTVSNAPVTEYMSQNANFQNPRCENTPLIGRESPPPSYTSSMRAKYLATSQPRPDSSGSGH
# Variants of: B1
# Assay: FSEC
# Settings: with itself; DDM solubilized HEK 293 cells; n = 3; parent: 0.98; read off a plot
row,Variant,screen value
1,MAGVSYAAPWWVSLLHRLPHFDLRWEATSSQFRPEDADYQQALLLLGATALACLALDLLFLLFYSFWLCCRRRKTDEHLDADCCCTAWCVIITTLVCSAGIAVGFYGNGETSDGIHRATYSLRHANRTVAGVQDRVWDTAAALNRTAEPNLQSLERQLAGRQEPLRAVQRLQTLLGTLLGYTAAIPFWRNPGVSLEVLAEQVDLYDWYRWLGYLGLLLLDVIICLLVLVGLIRSSKGILVGVCLLGVLALVISWGALGLELAVSVGSSDFCVDPDTFVTKMVEEHSVLSGDILQYYLAASPRATNPFQQKLSGSHKALVEMQDVVAELLRNVPREHPATKDPLLRVQEVLNGTEVNLQHLTALVDCRSLHLDYVQALTGFCYDGVEGLIYLALFSFVTALMFSSIVCSIPHTWQQKRGPDDDGEEETAPGPRQAHDSLYRVHMPSLYSCGSSYGSEASIPAAAHTVSNAPVTEYMSQNANFQNPRCENTPLIGRESPPPSYTSSMRAKYLATSQPRPDSSGSGH [chain 1 C299A],0.27
2,MAGVSYAAPWWVSLLHRLPHFDLRWEATSSQFRPEDADYQQALLLLGATALACLALDLLFLLFYSFWLCCRRRKTDEHLDADCCCTAWCVIITTLVCSAGIAVGFYGNGETSDGIHRATYSLRHANRTVAGVQDRVWDTAAALNRTAEPNLQSLERQLAGRQEPLRAVQRLQTLLGTLLGYTAAIPFWRNPGVSLEVLAEQVDLYDWYRWLGYLGLLLLDVIICLLVLVGLIRSSKGILVGVCLLGVLALVISWGALGLELAVSVGSSDFCVDPDTFVTKMVEEHSVLSGDILQYYLACSPRATNPFQQKLSGSHKALVEMQDVVAELLRNVPREHPATKDPLLRVQEVLNGTEVNLQHLTALVDARSLHLDYVQALTGFCYDGVEGLIYLALFSFVTALMFSSIVCSIPHTWQQKRGPDDDGEEETAPGPRQAHDSLYRVHMPSLYSCGSSYGSEASIPAAAHTVSNAPVTEYMSQNANFQNPRCENTPLIGRESPPPSYTSSMRAKYLATSQPRPDSSGSGH [chain 1 C366A],0.25
